Test results taken from article PMC10218236.
Values joined by “and” are separate entries in the source; they are usually repeats but may differ in a detail not shown here. Equal values may be shown once.

Molecular target: L1CAM on L1CAM-high cells (LoVo) (Homo sapiens?) (UniProt P32004)
Experiment: flow cytometry
Conditions: PBS, 4.5 g/L glucose, 5 mM MgCl2, 1 mg/mL BSA, 0.1 mg/mL herring sperm DNA, 30 min at 4 °C (or 25/37 °C), pH not stated

L1CAM on L1CAM-high cells (LoVo) (Homo sapiens?), sequence (P32004 20-1257): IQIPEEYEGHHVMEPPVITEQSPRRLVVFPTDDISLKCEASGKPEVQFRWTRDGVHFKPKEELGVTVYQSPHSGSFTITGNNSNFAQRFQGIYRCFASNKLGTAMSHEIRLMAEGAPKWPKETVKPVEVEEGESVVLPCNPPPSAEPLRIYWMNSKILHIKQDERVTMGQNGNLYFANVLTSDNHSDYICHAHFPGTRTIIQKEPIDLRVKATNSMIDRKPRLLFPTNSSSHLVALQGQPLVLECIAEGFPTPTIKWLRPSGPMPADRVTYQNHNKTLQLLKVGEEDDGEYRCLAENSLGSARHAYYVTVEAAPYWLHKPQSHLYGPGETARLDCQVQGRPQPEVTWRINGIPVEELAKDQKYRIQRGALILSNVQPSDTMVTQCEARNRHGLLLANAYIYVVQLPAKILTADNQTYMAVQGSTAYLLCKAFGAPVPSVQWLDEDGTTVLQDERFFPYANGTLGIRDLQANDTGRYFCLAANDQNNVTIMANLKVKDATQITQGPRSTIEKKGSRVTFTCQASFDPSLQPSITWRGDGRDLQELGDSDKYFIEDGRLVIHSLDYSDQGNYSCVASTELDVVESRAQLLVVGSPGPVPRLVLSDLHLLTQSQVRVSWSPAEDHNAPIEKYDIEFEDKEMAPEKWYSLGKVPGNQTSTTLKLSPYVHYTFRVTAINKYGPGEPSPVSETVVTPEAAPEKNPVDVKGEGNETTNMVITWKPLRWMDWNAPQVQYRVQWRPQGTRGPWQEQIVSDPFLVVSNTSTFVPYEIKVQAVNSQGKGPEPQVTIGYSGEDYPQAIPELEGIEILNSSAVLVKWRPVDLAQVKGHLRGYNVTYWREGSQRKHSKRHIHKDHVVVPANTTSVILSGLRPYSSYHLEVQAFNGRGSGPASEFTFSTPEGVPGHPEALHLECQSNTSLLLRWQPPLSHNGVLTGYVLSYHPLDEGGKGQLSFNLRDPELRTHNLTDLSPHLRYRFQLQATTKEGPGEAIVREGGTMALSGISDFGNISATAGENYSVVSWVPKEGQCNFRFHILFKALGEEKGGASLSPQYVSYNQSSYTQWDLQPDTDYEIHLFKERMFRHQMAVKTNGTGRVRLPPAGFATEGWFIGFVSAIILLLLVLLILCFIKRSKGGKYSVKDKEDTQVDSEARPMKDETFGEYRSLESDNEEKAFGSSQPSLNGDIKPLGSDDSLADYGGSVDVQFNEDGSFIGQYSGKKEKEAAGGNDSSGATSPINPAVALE

Row | Sequence | Kd | Kd (cited from earlier work)
1 | AGCGCAGAAGGGGGTAGCTCGGTCGTGTTTTTGGGTTGTTTGGTGGGTCTTCTGCGCT [yly21-9-T] | 107 nM | 
2 | AGGATAGGGGGTAGCTCGGTCGTGTTTTTGGGTTGTTTGGTGGGTCTTCTG [yly12] | 21.6 nM and 111 nM | 3.5 nM
3 | CAGATAGGGGGTAGCTCGGTCGTGTTTCCGGGTTGTTTGGTGGGTCTTCTG [yly20-T2829C] | 55.9 nM | 
4 | CAGATAGAGGGTAGCTCGGTCGTGTTTTTGGGTTGTTTGGTGGGTCTTCTG [yly20-G8A] | 18.9 nM | 
5 | CAGATAGGGGGTAGCTCGGTCGTGTTTTTGGGCTGTTTGGTGGGTCTTCTG [yly20-T33C] | 9.5 nM | 
6 | CAGATAGGGGGTAGCCCGGTCGTGTTTTTGGGTTGTTTGGTGGGTCTTCTG [yly20-T16C] | 44.2 nM | 
7 | CAGATAGGGGGTAGCTCGGTCGTGTTTTTGGGTTGTTTGGTGGGCCTTCTG [yly20-T45C] | 66.9 nM | 
8 | AGCGCAGATAGGGGGTAGCTCGGTCGTGTTTTTGGGTTGTTTGGTGGGTCTTCTGCGCT [yly21] | 1.3 nM and 0.9 nM and 5.1 nM | 
9 | TAGGGGGTAGCTCGGTCGTGTTTTTGGGTTGTTTGGTGGGTCTTCTG [yly16] |  | 330 nM
10 | CGGATAGGGGGTAGCTCGGTCGTGTTTTTGGGTTGTTTGGTGGGTCTTCTG [yly34] | 3.4 nM and 7.2 nM and 18.7 nM | 
11 | CAGAAGGGGGTAGCTCGGTCGTGTTTTTGGGTTGTTTGGTGGGTCTTCTG [yly20-5-T] | 112 nM | 
12 | CAGATAGGGGGTAGCTCGGTCGTGATTTTGGGTTGTTTGGTGGGTCTTCTG [yly20-T25A] | 1.7 nM | 
13 | GGGATAGGGGGTAGCTCGGTCGTGTTTTTGGGTTGTTTGGTGGGTCTTCTG [yly33] | 6.2 nM and 12 nM and 41.4 nM | 
14 | ATAGGGGGTAGCTCGGTCGTGTTTTTGGGTTGTTTGGTGGGTCTTCTG [yly14] |  | 92 nM
15 | CAGATAGGGGGTAGCCCGGTCGTGTTTTCGGGTTGTTTGGTGGGTCTTCTG [yly20-T1629C] | 155 nM | 
16 | CAGATAGGGGGTAGCTAGGTCGTGTTTTTGGGTTGTTTGGTGGGTCTTCTG [yly20-C17A] | 3.4 nM | 
17 | CAGATAGGGGGTAGCTCGGTCATGTTTTTGGGTTGTTTGGTGGGTCTTCTG [yly20-G22A] | 1.3 nM | 
18 | CAGATAGGGGGTAGCTCGGTCGTGTTTCTGGGTTGTTTGGTGGGTCTTCTG [yly20-T28C] | 5.3 nM | 
19 | CAGATAGGGGGTAGCTCGGTCGTGTTTTTGGGTTATTTGGTGGGTCTTCTG [yly20-G35A] | 53.1 nM | 
20 | AGGATAGGGGGTAGCTCGGTCGTGTTTTTGGGTTGTTTGGTGGGTCTT [yly13] |  | 369 nM
21 | CAGATAGGGGGTAGCTCGGTCGTGTTTTTGGGTTGTTTGGTGGGTCTTCTG [yly20] | 2.3 nM and 1.9 nM and 7.6 nM | 
22 | CAGATAGGGGGTAGCTCGGTCGTGTTTTCGGGTTGTTTGGTGGGTCTTCTG [yly20-T29C] | 4.2 nM | 
23 | TTTGGGTTGTTTGGTGGGTCTTCTGCAGATAGGGGGTAGCTCGGTCGTGTT [yly20re] | 4.2 nM and 4.4 nM and 13 nM | 
24 | CAGATAGGGGGTAGCTCGGTCGTGTTTTTGGGTTGTTTGGTGGGTATTCTG [yly20-C46A] | 46.4 nM | 
